The DeepSol protein solubility set

Test: soluble on expression in E. coli; label from the status in PepcDB or PDB records

Row | Sequence | soluble on expression in E. coli
1 | MSATFSPTAVTDLKDIQDVERLMGRIKEARAAVGEVIFGQEAVVDEVLVTLLAGGHALLIGLPGLAKTKLVQTLGTVVGLRDKRVQFTPDLMPADILGSEVLEEDAAGQRGFRFLPGPVFCQLLMADEINRASPRTQSALLQAMQEHRVSVAGHYHDLPAPFHVLATQNPIEQEGTYPLPEAQLDRFLMQVDVGYPDEAAERRMLAATTGVHQPEARAVMTPAELQAAQALVRRVPVGDSVVDAILSLVRAGRPESSPLPEVRDWVAWGPGPRASQALTLAVRARALLDGRFAPSIEDVIALAHPILRHRMALSFGARADGVTLGRVVDRLIDKIA | soluble
2 | MSAVLKKNKPFSILLMGTDTGALGRSDVGRTDTLMVATINPTKETAYLTSIPRDTRVTVGSGVNASVQKINAAYTIGGSKTAVKTVENLLDIPIDFYAIVNMGGLEKMVDAVGGVDVTPPLTFHYGAANVTKGKKTHLNGKQALAYSRMRHEDPLGDYGRQKRQRQVLQKMVVKAAGLSSITRYQTILKSLNGNLKTDLTFDDLMQIRAKYGDASHHIKSETLQGQDAMIDGLSYQVPTTSELKKVSNHIRKTLELANTTKFTTDADTDTTGSTAYGSSDNSGYGYLEHHHHHH | soluble
3 | MSAVLNGKKPVSILLLGTDTGALGRNYKGRTDTIILATINPKTKTTTLMSLPRDSEVAVSGFEQDFPTKLNAAYAYGSAGTTIKTVQKWLNVPIDYYALINMGGMKKVVDEIGGVDITPIRTFTYEGYTFTKGQKEHMNGAKALAYSRMRYDDPLGDYGRQQRQRQLITAIIGESASASNLLKQDFLNSLAKQTRTDLTFGNLTSIVTNYRSATKNIVSDHAQGTGKMIDGQSFEVVSQSEKQRVTNVLRKSLNLKAATTGEKFANQNLEHHHHHH | soluble
4 | MSAVPFPLLRLPNSALQKSLKEMRLVEQLSLSLLSENTMQLVRRFNRGRYFATITVVDSICVHLWTARCGQLFFKIKPDQSIRAVNILKSDSIATKFTMPKIPGFTVKKWLEHISHVFFSDTGATLRWMSSVRNIEETCEILKEVKIARLAINPSTVQDCQMRRLLPAIKELIVSDSTVHGSIVHWNLEKLSVFSTTMTLDDLLLSNCSDIAIGRNSLSHKNRNIFMRQWINGSNPRLQYFAMLMGFNGVQQLENTLFENIKYTETTVQGASTYKEFEIEGRDGRTAKIKLNTELTSRYFAMNVIF | not soluble
5 | MSCDRKDEEKKETEEKKDDESKKKDEKKEEKSKRKEDEKKEKQNIAGAVYNQMRNTILMEEGSVISGRFEVKGIIGGGGFAQIYKAWDKVRKEDCAIKVEHESQDIRRMKLEITVLLALRGSMGIPEILAQGKWQHEDNKSHYIVMQLVGRNLSDVRRALPHKRITERTLYRAMIQVLKALSLVHGAGFLHRDLKPSNCCIGAIDCTRIYLIDYGLTRQYLDKGGIVRKPRAGVGLRGTVRYMSLDAHARQDLGPKNDLVAFLYTTIECGDGYLPWSHEKTHENIIKLKQAHIGDKLCTKQPVMTKAAEYIESLNYHSIPDYEKLLALMEECNPPDLKESEPYDWQYRHLPNGTPGGTKENVTERMAI | soluble
6 | MSDAFTDVAKMKKIKEDIRAHEGQLVELTLENGRKREKNKIGRLIEVYSSLFIIEYSDSSDTPGAIDNSYVESYTYSDILTEKTLIRYLD | not soluble
7 | MSDDEIGDGARAFNQLIQALSLSIETETAVRTFTEMLVSELDVHQLTEQALALLLQHTGADGGAILIEVDGEIRVAASQGIGSAHTLANNDRVRSALRTERRHRVQLPEDLVVDGMLAQFRPKEVIIDPVRHKEVVLGAVVLASGQGFSAEDRNRLDVFERGLALALHNALLYDRLQTLAALDPLEHHHHHH | not soluble
8 | MSDEDERHRKKMKRKTCTGDSKSPAKKKQKIKDKSEEKSHAVQKHDAIGGKADSTKTKVKLSGKDKDKGKISKSAHSTEWTENDKKSSSDGGKKQIKRNEKGQLLFKDHPEFTPNMTPKEVLQAGSFGGTYFRPIYSSITKKHYKDVWKELPEDWLDGLNIPEQVASSTYREKVNTYKVKCGGSLEMWESSGWIVPQDPYGWFQWYCRFYQGRRTEDDARQISRWSKCAGVKGRWRNNLITKVVRSGCAYDNVTVSPVVRQTLQHWGYKLTPEDYKQGAKRVKLK | not soluble
9 | MSDEIARLVADVFELAGLLRRSGEVVAAREGHTQARWQLLSVVSDRALTVPQAARRLGVTRQGVQRVANDLVVCGLAELRHNPDHRTSPLLVLTENGRRVLQAITERAIVVNNRLADAVDPAALQATRDSLRRMIVALKAERP | not soluble
10 | MSDETFMREAIALARANVEAGGRPFGAVLVRDGRVLARGVNQIHETHDPSAHAELQAIRQASQALGSPRLDGCVIYASGHPCPMCLAAMHLCGIQAAWFAYSNEDGEAFGLSTATLYAEMARPPQRQSLPLRALRPAGEEGLYRQWRQRQA | not soluble
11 | MSDGIPFAGEPADSHEAIMRATFRALREYGYAGLSIQRIADEADLSKSTFYHHFDGKEDLLLSFQEFILTEFNRIFQIESTGDPEQDIKTFVSLILDDFPDCVETPTKNAVLGSYVEMRAQAVQNPDFREKFTETDELFARQLVQIIEDGIEQGVFADVDPDTVSRFMITILDGVILQSATRNDNPVAEVRDTIDEYIEETLILNT | not soluble
12 | MSDISRGDIRVKGFTDSEMDFQLIRQLGSSSYRAASVGECLNIANTMKNEDPEEWVRQFERLAEWQKKDGLERMVKNHVISGREQLFKASNSFRAAEYYSPPSSEHHRKLGLNSADCFCTAISSMDIHFENHSIPYKNINLPCYFISPANDGEKRDTVMIVSGFDGTLEEEFLMRGLAAVERGYNVIHFAGPGQMDVFRKYPDTYFEPDFEQVVKRIINYFEFRQEINMAKLTLMGISFGGYFATRAASHEPRIKVLIANSPILDLHAYMCSFVKMDPCEMPDSEDFSINDLPSIPNEVMPPQLKAQTEHLIRRFGQPTFKATFHYLREFTVGDSLNHIKIPCLALLGSGEGGEPGKQFAEFCKITNSAQYEFSDFEGAGSHCQVGNVSYSNAVVYDWLDSL | not soluble
13 | MSDLHIPGTQSTPAIQGDWQAGRLSMQGDSYPENSYELFGQVIDWVERFLADGQRPLELDLRLLYLNTSSIKAMMDILDLLEEAHQGGRPVSLRWHYDRRNERVAELAEEFREDCSFPFAIQAHDE | not soluble
14 | MSDPLHVTFVCTGNICRSPMAEKMFAQQLRHRGLGDAVRVTSAGTGNWHVGSCADERAAGVLRAHGYPTDHRAAQVGTEHLAADLLVALDRNHARLLRQLGVEAARVRMLRSFDPRSGTHALDVEDPYYGDHSDFEEVFAVIESALPGLHDWVDERLARNGPS | soluble
15 | MSDPVADFLAREQNLFADFDGAPPAAAAANPDAPEADAPAPALDDDFGDLQIAGDEPPPVVHPTDSGVDLDGLVDDNAAAPAIVVPAVEPMVNGNHSASSGGSKGPSPILSTVPRIEAEKIRLWKAQQEQLLSKKDEAEEKKKIELRANAKKELEEWYKQREKTLQLSHDENLKNEKSNQELFAKQQDGDAQWETVNKLVDQQKSKSGKDLSRLKTLLAGLKHAGK | not soluble
16 | MSDQIIARVSQSLAKEQSLESLVRQLLEMLEMVTDMESTYLTKVDVEARLQHIMFARNSQKMYIPENFTVSWDYSLCKRAIDENCFFSDEVPDRWGDCIAARNLGITTFLSTPIHLPDGSFYGTLCAASSEKRQWSERAEQVLQLFAGLIAQYIQKEALVEQLREANAALIAQSYTDSLTGLPNRRAIFENLTTLFSLARHLNHKIMIAFIDLDNFKLINDRFGHNSGDLFLIQVGERLNTLQQNGEVIGRLGGDEFLVVSLNNENADISSLRERIQQQIRGEYHLGDVDLYYPGASLGIVEVDPETTDADSALHAADIAMYQEKKHKQKTPFVAHPALHS | soluble
17 | MSDSNTSSLPRAAQLEPDAAPAVAVLQQALQWQVIFWSGEATDRDRMRWQSWLAADPAHARAWAQVQRTDEQLQTLASPAAEVLRSADARRCKARRTVLGMAGLLAGAGIMGCGLRQTAQWQMMMADDHTGYGERRNIELADGTQVTLGSATAIDVCYSAQARQLLLRTGEIFIVTAPDSADRPFLVQTTRGSVQALGTRFNVRESGEQIQVAVQDGAVAIRPAGMNPGDVVRLDAGQQTCFDHTKVEAAEALQISATAWTRGLLVAERMRLEDFLVELGRYRSGVLRCDPAVRDLIVSGVYSLDDTDQSLRLLAQALPVQVQTVTRWWTIVGPRPMK | not soluble
18 | MSDSPIGSSQQVEPEHRTPDLMDIDPLIANLKALHEETRSDDDDDGQPSTSAKRKDSRADGIVIHQKKYSDPGRFLWIWLLGVRVPALSIDGEPHLPIEILDDMLTKKDKKDQMSFQNLLRYKNVYIRMASPSQFRAVMEKSKECENLNITSLSLMSRSDIERIMGELRLESMLTLAEHDNWDISDRVHVVHVNFIDYCSEWLESDDLEEDVMQSGTHGYWYKNRRNMRCIECQHCEGKFTPTDFIMHHHYPIKPSGFVHTGCNSFQWIRLIEVFDKSNENLEAWNKFVLNSHRAGKREYDEAAPHQAPPKRPAMETPVPVAADNGWEADEEEEGEEIVDRDADIEKCKLRNKKKMENLHIADFLGPSGSKGLKPRNKFEAVIIEQLNKMDDAALEALFLKSPEEYNLWVKESDFTHKVVTQQQEWKAKMKDPNFKSRASANFDVSKGEFDNMRHFDNASKATRQEIQQLAEQFANLDRDAKLLTPMEFVLREHALLKNVSADAIRVLCNRPPLPPLPPPPPPPKPKPAPVQPISLGNINFVALAQQLIASGIKLPLPIVTPPVVSTPAPVITPIPAALPISPNSDFLKQQLSTAMSSPALLSLYPKLTAGAYEQLAQFIKTTTVKN | not soluble
19 | MSDTPSTSSVFLPTWPTRRTDANLYPNGSTKSDELVLHDYGLEEIPMRYHIEQPEEDYDPQNVKKLDLTHNSFVILRGLTTFNNVSVLDVSFNSLSALPEDIGTLSSLTTLIARNNLLEHLPKGLQLLENLEHLYLSGNRLEYVPPVILTMRKLKTLHLGGNYIDSCPSNISVLTLLRVLYLGGNRLREIPASIGCLDELENLGLCDNILETIPSTLGDLHYLETLSLHNNRLRTLPTDILNLRRLQQLSLRNNPLVHSFVHNMDLAPPSLKELSGRTVRQNYHKVPNLDEILPSDLVAYLGSACQCVNPECQGVYFDARVEHIKFVDFCGKYRVPLMQFLCSPRCSAGVPSVDYDTSSESEEEIEPIMRRVLLG | not soluble
20 | MSDTVEELVQRAKLAEQAERYDDMAAAMKKVTEQGQELSNEERNLLSVAYKNVVGARRSSWRVISSIEQKTEGSEKKQQLAKEYRVKVEQELNDICQDVLKLLDEFLIVKAGAAESKVFYLKMKGDYYRYLAEVASEDRAAVVEKSQKAYQEALDIAKDKMQPTHPIRLGLALNFSVFYYEILNTPEHACQLAKQAFDDAIAELDTLNEDSYKDSTLIMQLLRDNLTLWTSDVGAEDQEQEGNQEAGN | soluble
21 | MSDVTNTWNERYDTEEFVYGREPNAFLAGVSAMMPPGDVLCLAEGEGRNAVFLARQGHRVLAVDASAVGLSKAARLAEEHGVRIETLTTDLADLVIEPGRWDAIVSIFCHVPPPVRRVLHRQAVAGLRPGGLFVLEAYTPAQLELRTGGPPTVELLMTLADLREELAGLEFLQAREIERDVVEGRLHTGRGAVVQIVARKPLEHHHHHH | soluble
22 | MSEAESCEETSKEHRIWKKNVPYLYDTVVTKEVEWPSLSVQWMPDVTKTENSDSSMHRMIHGTHTCGGVQNHLMISKFTITTDTPEFDDAKWDSEREEFGGYGEGSAAKWDTEIKINHPGEVHRARYMPHNPFIIASRGPSDDVYIFDYTKHPSEPKDTKFRPQLRLKGHEGEGYGMSWSNTREGHLLTAGDDGMICHWDINANQTISGQIVPQSKFKGHSSNAEDVSFHALHNFVFGSVGDDRKLNLWDLRQSKPQLTAVGHTAEVNCITFNPFSEYILATGSVDKTVALWDMRNMRKKMYTLKHHNDEIFQVSFSPHYETVLASSGSDDRVIVWDISKIQDPSSSSAASSDSVPPEVIFIHAGHTGKVADFSWNPNRPWTICSSDEFNALQVWEVSNSLVSSEKWETEMI | not soluble
